± gives the standard deviation.
Test: collision cross section of modified peptide (TIMS, N2, iRT-aligned); higher = larger / more extended gas-phase ion
Procedure, shortened: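 Synthetic peptide pools (~100 fmol/µL in 2% acetonitrile/0.1% formic acid, iRT standard spiked 1:40) were separated on a 120-min nanoflow C18 gradient at 60 °C. They were analysed on a timsTOF Pro/HT (dda-PASEF, nitrogen, ~2.4 mbar) and identified with MaxQuant. 1/K0 was calibrated with three reference ions and aligned run-wise to the median iRT peptide deviation. Collision cross section came from the Mason-Schamp equation, averaging 1–3 technical replicates of the most abundant feature per charge state.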

[1] = charge state: 2, modification: Acetyl (K)
[2] = charge state: 2, modification: Biotin
[3] = charge state: 2, modification: Butyryl
[4] = charge state: 2, modification: Crotonyl
[5] = charge state: 2, modification: Dimethyl (K)
[6] = charge state: 3, modification: Dimethyl (K)
[7] = charge state: 2, modification: Formyl
[8] = charge state: 2, modification: Glutarylation
[9] = charge state: 2, modification: GlyGly (K)
[10] = charge state: 3, modification: GlyGly (K)
[11] = charge state: 2, modification: Malonyl
[12] = charge state: 2, modification: Methyl (K)
[13] = charge state: 3, modification: Methyl (K)
[14] = charge state: 2, modification: Propionyl
[15] = charge state: 2, modification: Succinyl
[16] = charge state: 3, modification: Succinyl
[17] = charge state: 2, modification: Trimethyl (K)
[18] = charge state: 3, modification: Trimethyl (K)
[19] = charge state: 2, modification: hydroxyisobutyryl
[20] = charge state: 3, modification: Acetyl (K)
[21] = charge state: 3, modification: Biotin
[22] = charge state: 3, modification: Butyryl
[23] = charge state: 3, modification: Crotonyl
[24] = charge state: 3, modification: Glutarylation
[25] = charge state: 3, modification: hydroxyisobutyryl
[26] = charge state: 2, modification: Nitro (Y)

With LLEEEDSKLK [_LLEEEDSK(Acetyl (K))LK_] the collision cross section [1] was 378.84 ± 0.45 Å².
Sequence LLEEEDSKLK [_LLEEEDSK(Biotin)LK_] has a collision cross section [2] of 405.12 ± 2.5 Å².
Sequence LLEEEDSKLK [_LLEEEDSK(Butyryl)LK_] has a collision cross section [3] of 385.99 ± 0.85 Å².
In the case of LLEEEDSKLK [_LLEEEDSK(Crotonyl)LK_], the collision cross section [4] is reported as 386.83 ± 0.27 Å².
In the case of LLEEEDSKLK [_LLEEEDSK(Dimethyl (K))LK_], the collision cross section [5] is reported as 385.27 ± 0.26 Å² and the collision cross section [6] is reported as 435.11 ± 2.1 Å².
Work on LLEEEDSKLK [_LLEEEDSK(Formyl)LK_] yielded a collision cross section [7] of 374.12 ± 0.55 Å².
For “LLEEEDSKLK [_LLEEEDSK(Gluratylation)LK_]”, the collision cross section [8] was 387.79 ± 0.61 Å².
LLEEEDSKLK [_LLEEEDSK(GlyGly (K))LK_] gave a collision cross section [9] of 386.87 ± 0.88 Å² and a collision cross section [10] of 453.7 ± 1.6 Å².
Sequence LLEEEDSKLK [_LLEEEDSK(Malonyl)LK_] has a collision cross section [11] of 379.46 ± 1.1 Å².
LLEEEDSKLK [_LLEEEDSK(Methyl (K))LK_] showed a collision cross section [12] of 382.93 ± 0.7 Å² and a collision cross section [13] of 439.97 ± 5.9 Å².
Work on LLEEEDSKLK [_LLEEEDSK(Propionyl)LK_] yielded a collision cross section [14] of 383.32 ± 0.94 Å².
In the case of LLEEEDSKLK [_LLEEEDSK(Succinyl)LK_], the collision cross section [15] is reported as 381.87 ± 0.24 Å² and the collision cross section [16] is reported as 464.35 Å².
“LLEEEDSKLK [_LLEEEDSK(Trimethyl (K))LK_]” gave a collision cross section [17] of 388.34 ± 1.1 Å² and a collision cross section [18] of 441.46 ± 2.4 Å².
In the case of “LLEEEDSKLK [_LLEEEDSK(hydroxyisobutyryl)LK_]”, the collision cross section [19] is reported as 385.85 ± 5.2 Å².
For LLEQKTQESQK [_LLEQK(Acetyl (K))TQESQK_], the collision cross section [1] was 392.69 ± 0.79 Å².
For LLEQKTQESQK [_LLEQK(Biotin)TQESQK_], the collision cross section [2] was 419.49 ± 1.1 Å².
Work on LLEQKTQESQK [_LLEQK(Butyryl)TQESQK_] yielded a collision cross section [3] of 398.26 ± 0.79 Å².
LLEQKTQESQK [_LLEQK(Crotonyl)TQESQK_] gave a collision cross section [4] of 398.38 ± 1.1 Å².
Work on “LLEQKTQESQK [_LLEQK(Dimethyl (K))TQESQK_]” yielded a collision cross section [5] of 409.09 ± 1.6 Å² and a collision cross section [6] of 453.46 ± 1.6 Å².
Work on LLEQKTQESQK [_LLEQK(Formyl)TQESQK_] yielded a collision cross section [7] of 386.78 ± 0.55 Å².
Sequence “LLEQKTQESQK [_LLEQK(Gluratylation)TQESQK_]” has a collision cross section [8] of 402.96 ± 0.5 Å².
Sequence LLEQKTQESQK [_LLEQK(GlyGly (K))TQESQK_] has a collision cross section [9] of 410.36 ± 1.9 Å² and a collision cross section [10] of 452.18 ± 1.1 Å².
Sequence LLEQKTQESQK [_LLEQK(Malonyl)TQESQK_] has a collision cross section [11] of 397.91 ± 0.65 Å².
LLEQKTQESQK [_LLEQK(Methyl (K))TQESQK_] gave a collision cross section [12] of 404.61 ± 2.3 Å² and a collision cross section [13] of 458.64 ± 4.9 Å².
Sequence LLEQKTQESQK [_LLEQK(Propionyl)TQESQK_] has a collision cross section [14] of 393.54 ± 0.65 Å².
In the case of LLEQKTQESQK [_LLEQK(Succinyl)TQESQK_], the collision cross section [15] is reported as 400.32 ± 0.77 Å².
Work on “LLEQKTQESQK [_LLEQK(Trimethyl (K))TQESQK_]” yielded a collision cross section [17] of 409.98 ± 2.2 Å² and a collision cross section [18] of 452.07 ± 1.5 Å².
With “LLEQKTQESQK [_LLEQK(hydroxyisobutyryl)TQESQK_]” the collision cross section [19] was 401.39 ± 0.81 Å².
In the case of “LLFSNTAAQKLR [_LLFSNTAAQK(Acetyl (K))LR_]”, the collision cross section [1] is reported as 400.1 ± 2.9 Å² and the collision cross section [20] is reported as 478.35 ± 0.83 Å².
Work on LLFSNTAAQKLR [_LLFSNTAAQK(Biotin)LR_] yielded a collision cross section [2] of 418.21 ± 1.1 Å² and a collision cross section [21] of 503.51 Å².
LLFSNTAAQKLR [_LLFSNTAAQK(Butyryl)LR_] gave a collision cross section [3] of 405.4 ± 0.23 Å² and a collision cross section [22] of 483.12 ± 3.2 Å².
Sequence LLFSNTAAQKLR [_LLFSNTAAQK(Crotonyl)LR_] has a collision cross section [4] of 404.43 ± 0.55 Å² and a collision cross section [23] of 483.58 ± 1.6 Å².
“LLFSNTAAQKLR [_LLFSNTAAQK(Dimethyl (K))LR_]” showed a collision cross section [5] of 419.08 ± 0.75 Å² and a collision cross section [6] of 473.77 ± 2.6 Å².
With LLFSNTAAQKLR [_LLFSNTAAQK(Formyl)LR_] the collision cross section [7] was 395.38 ± 0.55 Å².
“LLFSNTAAQKLR [_LLFSNTAAQK(Gluratylation)LR_]” gave a collision cross section [8] of 406.85 ± 0.6 Å² and a collision cross section [24] of 487.13 ± 1.7 Å².
Sequence “LLFSNTAAQKLR [_LLFSNTAAQK(GlyGly (K))LR_]” has a collision cross section [9] of 433.64 ± 0.96 Å² and a collision cross section [10] of 492.29 ± 2 Å².
Work on LLFSNTAAQKLR [_LLFSNTAAQK(Malonyl)LR_] yielded a collision cross section [11] of 400.72 ± 0.029 Å².
With “LLFSNTAAQKLR [_LLFSNTAAQK(Methyl (K))LR_]” the collision cross section [12] was 416.21 ± 1.5 Å² and the collision cross section [13] was 479.76 ± 3.4 Å².
With LLFSNTAAQKLR [_LLFSNTAAQK(Succinyl)LR_] the collision cross section [15] was 404.93 ± 0.55 Å² and the collision cross section [16] was 482.98 ± 3.3 Å².
“LLFSNTAAQKLR [_LLFSNTAAQK(Trimethyl (K))LR_]” showed a collision cross section [17] of 428.25 ± 0.6 Å² and a collision cross section [18] of 480.65 ± 2.4 Å².
Sequence “LLFSNTAAQKLR [_LLFSNTAAQK(hydroxyisobutyryl)LR_]” has a collision cross section [19] of 408.17 ± 0.55 Å² and a collision cross section [25] of 486.85 ± 1.9 Å².
For “LLIVSTTPYSEKDTK [_LLIVSTTPYSEK(Acetyl (K))DTK_]”, the collision cross section [1] was 449.39 ± 2.3 Å² and the collision cross section [20] was 486.31 ± 3 Å².
For “LLIVSTTPYSEKDTK [_LLIVSTTPYSEK(Biotin)DTK_]”, the collision cross section [2] was 480.64 Å².
“LLIVSTTPYSEKDTK [_LLIVSTTPYSEK(Butyryl)DTK_]” gave a collision cross section [3] of 459.06 ± 0.51 Å² and a collision cross section [22] of 488.4 ± 2.4 Å².
Sequence “LLIVSTTPYSEKDTK [_LLIVSTTPYSEK(Crotonyl)DTK_]” has a collision cross section [4] of 458.47 ± 1.4 Å² and a collision cross section [23] of 486.79 ± 2.7 Å².
For “LLIVSTTPYSEKDTK [_LLIVSTTPYSEK(Dimethyl (K))DTK_]”, the collision cross section [5] was 459.41 ± 1.9 Å² and the collision cross section [6] was 505.24 ± 1.6 Å².
Work on “LLIVSTTPYSEKDTK [_LLIVSTTPYSEK(Formyl)DTK_]” yielded a collision cross section [7] of 448.09 ± 0.69 Å² and a collision cross section (charge state: 3, modification: Formyl) of 480.73 ± 1.5 Å².
Sequence “LLIVSTTPYSEKDTK [_LLIVSTTPYSEK(Gluratylation)DTK_]” has a collision cross section [8] of 462.31 ± 1.5 Å² and a collision cross section [24] of 493.7 ± 1.3 Å².
With “LLIVSTTPYSEKDTK [_LLIVSTTPYSEK(GlyGly (K))DTK_]” the collision cross section [9] was 461.81 ± 0.94 Å² and the collision cross section [10] was 515.54 ± 1.1 Å².
Sequence “LLIVSTTPYSEKDTK [_LLIVSTTPYSEK(Malonyl)DTK_]” has a collision cross section [11] of 454.81 ± 0.99 Å² and a collision cross section (charge state: 3, modification: Malonyl) of 468.47 ± 1.2 Å².
In the case of “LLIVSTTPYSEKDTK [_LLIVSTTPYSEK(Methyl (K))DTK_]”, the collision cross section [12] is reported as 465.27 ± 2.3 Å² and the collision cross section [13] is reported as 508.6 ± 2 Å².
For “LLIVSTTPYSEKDTK [_LLIVSTTPYSEK(Propionyl)DTK_]”, the collision cross section [14] was 452.01 Å².
In the case of “LLIVSTTPYSEKDTK [_LLIVSTTPYSEK(Succinyl)DTK_]”, the collision cross section [15] is reported as 458.63 ± 1.1 Å² and the collision cross section [16] is reported as 480.04 ± 2.5 Å².
In the case of “LLIVSTTPYSEKDTK [_LLIVSTTPYSEK(Trimethyl (K))DTK_]”, the collision cross section [17] is reported as 468.15 ± 1.2 Å² and the collision cross section [18] is reported as 501.69 ± 1.8 Å².
For “LLIVSTTPYSEKDTK [_LLIVSTTPYSEK(hydroxyisobutyryl)DTK_]”, the collision cross section [19] was 461.48 ± 0.76 Å² and the collision cross section [25] was 486.54 ± 2.8 Å².
In the case of “LLRGVGGSHGR [_LLR(Citrullination (R))GVGGSHGR_]”, the collision cross section (charge state: 2, modification: Citrullination (R)) is reported as 372.77 ± 0.65 Å² and the collision cross section (charge state: 3, modification: Citrullination (R)) is reported as 442.38 ± 1.8 Å².
For LLRGVGGSHGR [_LLR(Methyl (R))GVGGSHGR_], the collision cross section (charge state: 2, modification: Methyl (R)) was 374.24 Å² and the collision cross section (charge state: 3, modification: Methyl (R)) was 456.7 ± 11 Å².
Work on LNAIYQNNLTK [_LNAIY(Nitro (Y))QNNLTK_] yielded a collision cross section [26] of 384.56 ± 0.55 Å².
For “LNAIYQNNLTK [_LNAIY(Phospho (Y))QNNLTK_]”, the collision cross section (charge state: 2, modification: Phospho (Y)) was 390.25 ± 0.67 Å².
Sequence “LPEYPQVDDLLLR [_LPEY(Nitro (Y))PQVDDLLLR_]” has a collision cross section [26] of 424.61 ± 1.1 Å².
In the case of “LPTTAASTPDAVDK [_LPT(HexNAc (ST))TAASTPDAVDK_]”, the collision cross section (charge state: 2, modification: HexNAc (ST)) is reported as 413.95 ± 0.62 Å².
For “LQAAYAGDKADDIQK [_LQAAYAGDK(Acetyl (K))ADDIQK_]”, the collision cross section [1] was 429.91 ± 2.1 Å² and the collision cross section [20] was 488.96 ± 0.48 Å².
For “LQAAYAGDKADDIQK [_LQAAYAGDK(Biotin)ADDIQK_]”, the collision cross section [2] was 449.09 ± 0.62 Å² and the collision cross section [21] was 511.95 ± 0.34 Å².
In the case of “LQAAYAGDKADDIQK [_LQAAYAGDK(Butyryl)ADDIQK_]”, the collision cross section [3] is reported as 436.77 ± 0.53 Å² and the collision cross section [22] is reported as 489.7 ± 2.9 Å².
Sequence “LQAAYAGDKADDIQK [_LQAAYAGDK(Crotonyl)ADDIQK_]” has a collision cross section [4] of 436.53 ± 0.29 Å² and a collision cross section [23] of 487.02 ± 2.8 Å².
Sequence “LQAAYAGDKADDIQK [_LQAAYAGDK(Dimethyl (K))ADDIQK_]” has a collision cross section [5] of 436.04 ± 1.1 Å² and a collision cross section [6] of 470.88 ± 1.6 Å².
Work on “LQAAYAGDKADDIQK [_LQAAYAGDK(Formyl)ADDIQK_]” yielded a collision cross section [7] of 428.24 ± 0.79 Å².

Source: the supplement of paper PMC10598134
